According to publication PMC10772716:
One block for each substance: values may come before it.

Experiments:
Assay in all cases: SEC-MALS
[1] = target: cMyBP-C C3C6 domains, E542Q variant (human) (UniProt Q14896)
[2] = target: cMyBP-C C3C6 domains, N755K variant (human) (UniProt Q14896)
[3] = target: cMyBP-C C3C6 domains, R820Q variant (human) (UniProt Q14896)

- stoichiometry N [1]: 2
Substance: cMyBP-C C3C6 domains, E542Q variant (from UniProt Q14896 1-1274) (domain or fragment)

- stoichiometry N [2]: 2
Substance: cMyBP-C C3C6 domains, N755K variant (from UniProt Q14896 1-1274) (domain or fragment)

- stoichiometry N [3]: 2
Substance: cMyBP-C C3C6 domains, R820Q variant (from UniProt Q14896 1-1274) (domain or fragment)
